The subject of one test is MRSA strain MW2. The test is described as follows: 21-day in vitro serial passage resistance assay. In kind it is cell-based, Staphylococcus aureus. The source says: Serial passage resistance studies were undertaken to assess the ability of PlySs2 lysin to suppress the emergence of antibiotic resistance when used in combination with oxacillin used to treat S. aureus infections. Methods used to perform serial passage experiments are described in Palmer et al., Genetic basis for daptomycin resistance in enterococci, ANTIMICROBIAL AGENTS AND CHEMOTHERAPY (2011); 55:3345-56 and Berti et al., Altering the Proclivity towards Daptomycin Resistance in Methicillin-Resistant Staphylococcus aureus Using Combinations with Other Antibiotics, ANTIMICROBIAL AGENTS AND CHEMOTHERAPY (2012); 56:5046-53, respectively.
21-day in vitro serial passage resistance assays were performed to determine the impact of PlySs2 (alone) on oxacillin and PlySs2 MIC values and the potential for a “seesaw” effect similar to that previously shown, whereby exposures to daptomycin or vancomycin were accompanied by increased susceptibility (and the potential for resensitization) to β-lactam antibiotics [Renzoni et al., Molecular Bases Determining Daptomycin Resistance-Mediated Resensitizatoin to β-Lactams (Seesaw Effect) in Methicillin-Resistant Staphylococcus aureus, ANTIMICROBIAL AGENTS AND CHEMOTHERAPY (2017) 61(1):e01634-16 and Werth et al., Evaluation of Ceftaroline Activity against Heteroresistant Vancomycin-Intermediate Staphylococcus aureus and Vancomycin-Intermediate Methicillin-Resistant S. aureus Strains in an In Vitro Pharmacokinetic/Pharmacodynamic Model: Exploring the ‘Seesaw Effect’, ANTIMICROBIAL AGENTS AND CHEMOTHERAPY (2013); 57(6):2664-68].
MRSA strain MW2 was serially passaged in triplicate on a daily basis for 21 days using both a 1.1-fold and 2-fold PlySs2 dilution series. As shown in FIGS. 1-3, only modest 2-fold shifts in PlySs2 MIC values were observed. […] This seesaw effect, i.e., a decrease in MRSA's susceptibility to PlySs2 accompanied by a paradoxical increase in susceptibility to oxacillin, indicates PlySs2 lysin's ability to resensitize MRSA to oxacillin. Three MRSA MW2 strain isolates were taken just prior (days 16, 11, and 8 for FIGS. 1-3, respectively) and just after (days 17, 12, and 9 for FIGS. 1-3, respectively) the observed MIC shift for whole genome sequencing.

Test [1] concerns nine different MRSA strains. The test is described as follows: Broth microdilution checkerboard assays, summary over the panel. In kind it is cell-based, Staphylococcus aureus. To be noted: each of the nine MRSA strains; breakpoint MIC ≤2 sensitive. An excerpt:
In some embodiments, the present lysin polypeptides reduce the minimum inhibitory concentration (MIC) of an antibiotic. Any known method to assess MIC may be used. In some embodiments, a checkerboard assay is used to determine the effect of a lysin on antibiotic concentration. The checkerboard assay is based on a modification of the CLSI method for MIC determination by broth microdilution (See Clinical and Laboratory Standards Institute (CLSI), CLSI. 2015. Methods for Dilution Antimicrobial Susceptibility Tests for Bacteria That Grow Aerobically; Approved Standard-10th Edition. Clinical and Laboratory Standards Institute, Wayne, Pa., which is herein incorporated by reference in its entirety and Ceri et al. 1999. J. Clin. Microbiol. 37: 1771-1776, which is also herein incorporated by reference in its entirety).
Checkerboards are constructed by first preparing columns of e.g., a 96-well polypropylene microtiter plate, wherein each well has the same amount of antibiotic diluted 2-fold along the horizontal axis. […] The lysin and antibiotic dilutions are then combined, so that each column has a constant amount of antibiotic and doubling dilutions of lysin, while each row has a constant amount of lysin and doubling dilutions of antibiotic. Each well thus has a unique combination of lysin and antibiotic. Bacteria are added to the drug combinations at a given concentration. […] Summation fractional inhibitory concentrations (ΣFICs) are calculated for each drug and the minimum ΣFIC value (ΣFICmin) is used to determine the effect of the lysin/antibiotic combination.
A step-wise approach was used to evaluate PlySs2 as a resensitizing agent. First, broth microdilution checkerboard assays were used to determine fractional inhibitory concentration index (FICI) values for combinations of PlySs2 with three β-lactam antibiotics [oxacillin (OXA), nafcillin (NAF), and cefazoline (CFZ)] against nine different MRSA strains. […] Representative single agent MICs are also shown, determined for each agent alone (initial) and in combinations (final). […]
For orientation: Broth dilution looks for growth in wells or tubes with falling amounts of substance.

Another test deals with MRSA. The test is described as follows: Standard rabbit model of MRSA infective endocarditis (IE), CFU in valvular vegetations. Format: in vivo, Staphylococcus aureus. The method, then:
An ex vivo analysis was performed on tissue samples recovered after PlySs2 treatment in a standard rabbit model of MRSA infective endocarditis (IE), as disclosed in Xiong et al., Comparative efficacy of telavancin and daptomycin in experimental endocarditis due to multi-clonotype MRSA strains, J. ANTIMIC. CHEMO. (2016); 71(1):2890-94. The standard rabbit IE model was used to confirm the impact of PlySs2 treatment on oxacillin MICs. Four days after treatment with a single-dose of PlySs2 (0.18 mg/kg to 1.4 mg/kg) in the IE model, isolates were recovered from valvular vegetations and plated on TSAB (non-selective condition, Tables 3 and 4) and TSAB supplemented with PlySs2 over a range of concentrations (selective conditions, Tables 5 and 6). MIC values of the MRSA isolates were determined for both PlySs2 and oxacillin. Tables 3 and 4 below show the MICs calculated for PlySs2 and oxacillin, respectively, for valvular vegetations subject to the non-selective conditions.

Where only a bound is given, the exact number is not on record here.

Take `Cc1onc(-c2ccccc2)c1C(=O)N[C@@H]1C(=O)N2[C@@H]1SC(C)(C)[C@@H]2C(=O)O` [OXA, oxacillin]: the “OXA MIC after shift” value with MRSA strain MW2 (MW2, serial passage in PlySs2, after the shift) amounted to 16 µg/mL. Also, the “OXA MIC before shift” value in the test on MRSA strain MW2 (MW2, serial passage in PlySs2, before the shift) is 64 µg/mL. The “OXA MIC fold change” value with MRSA strain MW2 (MW2 after PlySs2 exposure in serial passage) was 0.25 fold. Moreover, the “MIC in synergistic combination with PlySs2 relative to breakpoint” value in test [1] is “below breakpoint values”.

B1: PlySs2: bacteriophage lysin derived from Streptococcus suis, amino acid sequence SEQ ID NO: 1 (245 residues) (protein, listed as Streptococcus suis)
chain: MTTVNEALNNVRAQVGSGVSVGNGECYALASWYERMISPDATVGLGAGVGWVSGAIGDTISAKNIGSSYNWQANGWTVSTSGPFKAGQIVTLGATPGNPYGHVVIVEAVDGDRLTILEQNYGGKRYPVRNYYSAASYRQQVVHYITPPGTVAQSAPNLAGSRSYRETGTMTVTVDALNVRRAPNTSGEIVAVYKRGESFDYDTVIIDVNGYVWVSYIGGSGKRNYVATGATKDGKRFGNAWGTFK
In the case of B1, the “Log10 CFU/g of Vegetation” value in the test on MRSA (PlySs2 0.18 mg/kg, TSAB supplemented with PlySs2, 128 (unit not given)) amounted to 4.6 ± 0.7 Log10 CFU/g; with MRSA (PlySs2 0.18 mg/kg, TSAB supplemented with PlySs2, column 16 (unit not printed)), 7.1 ± 0.1 Log10 CFU/g; in the test with MRSA (PlySs2 0.18 mg/kg, TSAB supplemented with PlySs2, column 32 (unit not printed)) it was 7.1 ± 0.1 Log10 CFU/g; with MRSA (PlySs2 0.18 mg/kg, TSAB supplemented with PlySs2, column 64 (unit not given)), 6.6 ± 0.9 Log10 CFU/g; with MRSA (PlySs2 0.35 mg/kg, TSAB supplemented with PlySs2, 128 (unit not given)), 3.4 ± 1.3 Log10 CFU/g; in the test on MRSA (PlySs2 0.35 mg/kg, TSAB supplemented with PlySs2, column 16 (unit not printed)), 6.9 ± 0.2 Log10 CFU/g. For the same molecule, the “Log10 CFU/g of Vegetation” value was 6.4 ± 0.5 Log10 CFU/g in the test with MRSA (PlySs2 0.35 mg/kg, TSAB supplemented with PlySs2, column 32 (unit not printed)); 5.5 ± 0.6 Log10 CFU/g in the test with MRSA (PlySs2 0.35 mg/kg, TSAB supplemented with PlySs2, column 64 (unit not given)); less than 2.1 ± 0.1 Log10 CFU/g in the test on MRSA (PlySs2 0.7 mg/kg, TSAB supplemented with PlySs2, 128 (unit not given)); 6.7 ± 0.1 Log10 CFU/g with MRSA (PlySs2 0.7 mg/kg, TSAB supplemented with PlySs2, column 16 (unit not printed)); 5.7 ± 1.1 Log10 CFU/g in the test with MRSA (PlySs2 0.7 mg/kg, TSAB supplemented with PlySs2, column 32 (unit not printed)); 3.8 ± 1.8 Log10 CFU/g in the test on MRSA (PlySs2 0.7 mg/kg, TSAB supplemented with PlySs2, column 64 (unit not given)). For the same molecule, the “Log10 CFU/g of Vegetation” value came out at 2.8 ± 1.2 Log10 CFU/g in the test with MRSA (PlySs2 1.4 mg/kg, TSAB supplemented with PlySs2, 128 (unit not given)); 7.1 ± 0.06 Log10 CFU/g with MRSA (PlySs2 1.4 mg/kg, TSAB supplemented with PlySs2, column 16 (unit not printed)); 5.9 ± 0.03 Log10 CFU/g with MRSA (PlySs2 1.4 mg/kg, TSAB supplemented with PlySs2, column 32 (unit not printed)); 4.2 ± 1.7 Log10 CFU/g in the test with MRSA (PlySs2 1.4 mg/kg, TSAB supplemented with PlySs2, column 64 (unit not given)); 8.65 ± 0.58 Log10 CFU/g in the test with MRSA (single dose PlySs2 0.18 mg/kg, four days after treatment, TSAB non-selective (0)); 8.17 ± 0.58 Log10 CFU/g in the test on MRSA (single dose PlySs2 0.35 mg/kg, four days after treatment, TSAB non-selective (0)). Moreover, the “Log10 CFU/g of Vegetation” value in the test with MRSA (single dose PlySs2 0.7 mg/kg, four days after treatment, TSAB non-selective (0)) is recorded as 7.93 ± 0.12 Log10 CFU/g; in the test on MRSA (single dose PlySs2 1.4 mg/kg, four days after treatment, TSAB non-selective (0)), 8.24 ± 0.02 Log10 CFU/g. Also, the “Shift in PlySs2 MIC values” in the test with MRSA strain MW2 (MW2 passaged daily for 21 days in 1.1-fold and 2-fold PlySs2 dilution series, triplicate) is given as 2 fold.

The values above are taken from patent US20210260070A1, “LYSIN CF-301 RESENSITIZES METHICILLIN-RESISTANT STAPHYLOCOCCUS AUREUA (MRSA) TO PENICILLIN DERIVATIVES AND FIRST GENERATION CEPHALOSPORINS” (priority 2018, published 2021).
